For one substance, Kd results are on record in PMC4188261.

In the assay the target is Burkholderia mallei BmaI1 acyl-homoserine lactone synthase (Burkholderia mallei ATCC23344). Put plainly: steady-state enzyme kinetics.

Substance “octanoyl-acyl carrier protein (E. coli ACP) (from UniProt P0A6A8 1-78) (natural protein)” came in with a Kd of 125 nM.
